For one substance, Treg (FoxP3+) differentiation, inhibition of Th2 differentiation and inhibition of Th17 differentiation results are on record in US20180335433A1, “COMPOSITIONS TARGETING PKC-THETA AND USES AND METHODS OF TREATING PKC-THETA PATHOLOGIES, ADVERSE IMMUNE RESPONSES AND DISEASES” (La Jolla Institute for Allergy and Immunology, priority 2011, published 2018).

The experiment addresses CD28, endogenous in primary mouse CD4+ T cells (mouse) (UniProt P31041). As to the kind of experiment: cell-based or functional assay.

Sequence of CD28, endogenous in primary mouse CD4+ T cells (mouse) (P31041 20-218): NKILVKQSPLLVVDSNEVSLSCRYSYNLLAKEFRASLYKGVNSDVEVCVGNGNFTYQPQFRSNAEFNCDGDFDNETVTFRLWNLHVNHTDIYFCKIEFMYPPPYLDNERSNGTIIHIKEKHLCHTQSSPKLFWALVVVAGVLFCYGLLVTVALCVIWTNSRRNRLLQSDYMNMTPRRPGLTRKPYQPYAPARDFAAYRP

In turn, “Myc-tagged PKCθ V3 domain (aa 282-379 of human PKCθ, N-terminal Myc tag) (from UniProt Q04759 282-379)” registered a Treg (FoxP3+) differentiation of 4 fold, an inhibition of Th2 differentiation of 75% and an inhibition of Th17 differentiation of 75%.
